Tests used:
[1] = target: T1, Dda helicase (bacteriophage T4?) (UniProt P32270); settings: biotin at position 60, streptavidin-bound; streptavidin displacement rate at 1 uM Dda, preincubated with DNA, 5 mM ATP, Mg2+
T1 sequence: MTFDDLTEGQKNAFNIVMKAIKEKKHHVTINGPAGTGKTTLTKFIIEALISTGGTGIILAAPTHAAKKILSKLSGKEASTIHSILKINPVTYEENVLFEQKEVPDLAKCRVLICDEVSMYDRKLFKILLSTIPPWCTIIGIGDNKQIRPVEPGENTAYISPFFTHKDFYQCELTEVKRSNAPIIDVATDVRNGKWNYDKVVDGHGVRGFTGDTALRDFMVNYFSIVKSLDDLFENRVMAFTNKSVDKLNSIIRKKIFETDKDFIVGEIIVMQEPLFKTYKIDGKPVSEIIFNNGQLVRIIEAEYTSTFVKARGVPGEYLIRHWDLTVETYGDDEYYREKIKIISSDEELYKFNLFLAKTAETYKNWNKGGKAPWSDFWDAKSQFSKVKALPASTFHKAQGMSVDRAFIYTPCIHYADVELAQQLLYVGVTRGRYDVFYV

[2] = target: T2, gp41 helicase (bacteriophage T4?) (UniProt P04530); settings: biotin at position 60, streptavidin-bound; streptavidin displacement rate at 4 uM gp41; 5 mM ATP, 12.5 mM Mg(OAc)2, 150 mM KOAc, pH 7.5, 37 C; none without ATP
T2 sequence: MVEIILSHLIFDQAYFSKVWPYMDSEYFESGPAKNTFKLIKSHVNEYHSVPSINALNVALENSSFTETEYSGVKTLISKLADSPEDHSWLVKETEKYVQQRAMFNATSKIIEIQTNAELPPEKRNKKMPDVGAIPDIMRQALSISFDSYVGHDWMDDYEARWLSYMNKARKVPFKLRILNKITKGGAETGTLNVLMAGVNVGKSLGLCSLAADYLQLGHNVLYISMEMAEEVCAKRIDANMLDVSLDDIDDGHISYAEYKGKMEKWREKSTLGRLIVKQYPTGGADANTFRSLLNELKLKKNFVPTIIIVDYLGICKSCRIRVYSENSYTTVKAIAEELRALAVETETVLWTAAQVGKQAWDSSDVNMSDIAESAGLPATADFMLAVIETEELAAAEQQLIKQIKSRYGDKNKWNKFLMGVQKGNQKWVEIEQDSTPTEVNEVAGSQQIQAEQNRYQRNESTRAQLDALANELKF

[3] = target: NS3 helicase (full length) (Hepatitis C virus) (UniProt P26663); settings: biotin at position 2, streptavidin-bound; streptavidin displaced from 5' end; 10 nM NS3, 100 nM oligonucleotide
Chain of NS3 helicase (full length) (Hepatitis C virus) (P26663 1027-1657): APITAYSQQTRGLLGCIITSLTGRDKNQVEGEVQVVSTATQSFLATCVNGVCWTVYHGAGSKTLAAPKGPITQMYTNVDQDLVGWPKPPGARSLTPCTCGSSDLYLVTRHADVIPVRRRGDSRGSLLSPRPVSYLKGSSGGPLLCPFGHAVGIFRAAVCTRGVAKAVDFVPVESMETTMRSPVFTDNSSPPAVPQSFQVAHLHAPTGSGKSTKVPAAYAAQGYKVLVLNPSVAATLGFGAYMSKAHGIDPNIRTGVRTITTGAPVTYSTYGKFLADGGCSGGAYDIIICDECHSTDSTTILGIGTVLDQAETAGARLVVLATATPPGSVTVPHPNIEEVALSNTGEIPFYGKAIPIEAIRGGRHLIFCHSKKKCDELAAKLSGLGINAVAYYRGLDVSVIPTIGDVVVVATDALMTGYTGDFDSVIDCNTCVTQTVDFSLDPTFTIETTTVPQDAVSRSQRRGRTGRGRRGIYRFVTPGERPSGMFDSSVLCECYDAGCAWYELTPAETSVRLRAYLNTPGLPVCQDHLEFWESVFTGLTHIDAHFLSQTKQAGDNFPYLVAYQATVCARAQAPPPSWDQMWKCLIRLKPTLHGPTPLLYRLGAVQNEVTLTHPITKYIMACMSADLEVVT

| Substance | activity [1] [s⁻¹] | activity [2] [min⁻¹] | activity (fold over spontaneous dissociation) [3] |
| --- | --- | --- | --- |
| 3'-bio-61-mer (called 62-mer in text) | 7.9 | 0.17 |  |
| 5'-bio-60-mer |  |  | > 100 |

From patent US6309839
